{
  "source": "patent US20120316071A1",
  "about": "(published 2012)",
  "binders": {"B1": {"name": "Fab VH1-46_IGHD6-6*01_IGHJ1*01 S102A/S103P/S104F (APF) & L6_IGKJ1*01 (Fab, V domains shown)", "VH": "QVQLVQSGAEVKKPGASVKVSCKASGYTFTSYYMHWVRQAPGQGLEWMGIINPSGGSTSYAQKFQGRVTMTRDTSTSTVYMELSSLRSEDTAVYYCAREEYAPFSAEYFQHWGQGTLVTVSS", "VL": "not shown", "notes": "Tested as a Fab made in E. coli; The heavy chain plasmid A adds CH1 with His6 and Flag tags; The light chain plasmid C adds kappa CL; also called H:APF & L:wt; APF triple mutant"}, "B2": {"name": "Fab VH1-46_IGHD6-6*01_IGHJ1*01 S102A/S103P/S104F/H111F (APFF) & L6_IGKJ1*01 (Fab, V domains shown)", "VH": "QVQLVQSGAEVKKPGASVKVSCKASGYTFTSYYMHWVRQAPGQGLEWMGIINPSGGSTSYAQKFQGRVTMTRDTSTSTVYMELSSLRSEDTAVYYCAREEYAPFSAEYFQFWGQGTLVTVSS", "VL": "not shown", "notes": "Fab format as for APF (CH1 and kappa CL from the expression plasmids); also called APF H111F; H:APFF & L:wt"}},
  "key": {"[1]": {"target": "T1, rHuman IGF-1 sR, CF (R&D Systems Cat#391-GR) (human, UniProt P08069 31-932)", "T1 construct": "Bought soluble receptor; also called insulin-like growth factor-1 soluble receptor", "assay": "ECL Multispot (MSD), 10 nM Fab; blank 198"}, "[2]": {"target": "T2, rHuman P-Cadherin/Fc Chimera, CF (R&D Systems Cat#861-PC) (human, UniProt P22223 108-654)", "T2 construct": "Bought reagent; Fc part of the bought chimera not given", "assay": "ECL Multispot (MSD), 10 nM Fab; blank 198"}, "[3]": {"target": "T3, rHuman Erythropoietin R/Fc Chimera, CF (R&D Systems Cat#963-ER) (human, UniProt P19235 25-250)", "T3 construct": "Bought reagent; also called EPO R; EPO R/Fc; Fc part of the bought chimera not given", "T3 sequence (looked up)": "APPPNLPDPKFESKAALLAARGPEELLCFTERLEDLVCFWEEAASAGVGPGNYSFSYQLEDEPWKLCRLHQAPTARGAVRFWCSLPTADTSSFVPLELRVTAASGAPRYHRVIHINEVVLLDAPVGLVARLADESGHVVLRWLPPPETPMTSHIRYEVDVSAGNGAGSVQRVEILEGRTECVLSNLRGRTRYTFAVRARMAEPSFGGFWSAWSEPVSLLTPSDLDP", "assay": "ECL Multispot (MSD), 10 nM Fab; blank 198"}, "[4]": {"target": "T4, rHuman ErbB2/Fc Chimera, CF (R&D Systems Cat#1129-ER) (human, UniProt P04626 23-652)", "T4 construct": "Bought reagent; also called human epidermal growth factor 2 receptor; Fc part of the bought chimera not given", "assay": "ECL Multispot (MSD), 10 nM Fab; blank 198"}, "[5]": {"target": "T5, rHuman EGF R/Fc Chimera, CF (R&D Systems Cat#344-ER) (human, UniProt P00533 25-645)", "T5 construct": "Bought reagent; also called epidermal growth factor receptor; Fc part of the bought chimera not given", "assay": "ECL Multispot (MSD), 10 nM Fab; blank 198"}, "[6]": {"target": "T6, rHuman HGF R/c-MET/Fc Chimera, CF (R&D Systems Cat#358-MT/CF) (human, UniProt P08581 25-932)", "T6 construct": "Bought reagent; also called HGF R/Fc; hepatocyte growth factor receptor; Fc part of the bought chimera not given", "assay": "ECL Multispot (MSD), 10 nM Fab; blank 198"}, "[7]": {"target": "T7, rHuman Notch-1/Fc Chimera, CF (R&D Systems Cat#3647-TK) (human, UniProt P46531 19-526)", "T7 construct": "Bought reagent; Fc part of the bought chimera not given", "assay": "ECL Multispot (MSD), 10 nM Fab; blank 198"}, "[8]": {"target": "T8, rHuman CD44/Fc Chimera, CF (R&D Systems Cat#3660-CD) (human, UniProt P16070 21-220)", "T8 construct": "Bought reagent; Fc part of the bought chimera not given", "assay": "ECL Multispot (MSD), 10 nM Fab; blank 198"}, "[9]": {"target": "T1, rHuman IGF-1 sR, CF (R&D Systems …)", "assay": "ECL Multispot (MSD), 10 nM Fab; blank 320"}, "[10]": {"target": "T2, rHuman P-Cadherin/Fc Chimera, CF (R&D …)", "assay": "ECL Multispot (MSD), 10 nM Fab; blank 320"}, "[11]": {"target": "T3, rHuman Erythropoietin R/Fc Chimera, CF …", "assay": "ECL Multispot (MSD), 10 nM Fab; blank 320"}, "[12]": {"target": "T4, rHuman ErbB2/Fc Chimera, CF (R&D …)", "assay": "ECL Multispot (MSD), 10 nM Fab; blank 320"}, "[13]": {"target": "T5, rHuman EGF R/Fc Chimera, CF (R&D …)", "assay": "ECL Multispot (MSD), 10 nM Fab; blank 320"}, "[14]": {"target": "T6, rHuman HGF R/c-MET/Fc Chimera, CF (R&D …)", "assay": "ECL Multispot (MSD), 10 nM Fab; blank 320"}, "[15]": {"target": "T7, rHuman Notch-1/Fc Chimera, CF (R&D …)", "assay": "ECL Multispot (MSD), 10 nM Fab; blank 320"}, "[16]": {"target": "T8, rHuman CD44/Fc Chimera, CF (R&D Systems …)", "assay": "ECL Multispot (MSD), 10 nM Fab; blank 320"}, "[17]": {"target": "T1, rHuman IGF-1 sR, CF (R&D Systems …)", "assay": "ECL Multispot (MSD), 10 nM Fab; blank 372"}, "[18]": {"target": "T2, rHuman P-Cadherin/Fc Chimera, CF (R&D …)", "assay": "ECL Multispot (MSD), 10 nM Fab; blank 372"}, "[19]": {"target": "T3, rHuman Erythropoietin R/Fc Chimera, CF …", "assay": "ECL Multispot (MSD), 10 nM Fab; blank 372"}, "[20]": {"target": "T4, rHuman ErbB2/Fc Chimera, CF (R&D …)", "assay": "ECL Multispot (MSD), 10 nM Fab; blank 372"}, "[21]": {"target": "T5, rHuman EGF R/Fc Chimera, CF (R&D …)", "assay": "ECL Multispot (MSD), 10 nM Fab; blank 372"}, "[22]": {"target": "T6, rHuman HGF R/c-MET/Fc Chimera, CF (R&D …)", "assay": "ECL Multispot (MSD), 10 nM Fab; blank 372"}, "[23]": {"target": "T7, rHuman Notch-1/Fc Chimera, CF (R&D …)", "assay": "ECL Multispot (MSD), 10 nM Fab; blank 372"}, "[24]": {"target": "T8, rHuman CD44/Fc Chimera, CF (R&D Systems …)", "assay": "ECL Multispot (MSD), 10 nM Fab; blank 372"}, "[25]": {"target": "T9, rHuman IGF-1 sR, CF (R&D Systems Cat#391-GR) (human, UniProt P08069 31-932)", "T9 construct": "Bought soluble receptor; The column head prints only 'IGF-1'; also called insulin-like growth factor-1 soluble receptor", "assay": "ECL Multispot (MSD) assay, antigen spotted on plate, 10 nM Fab; blank spot of this row 290"}, "[26]": {"target": "T10, rHuman P-Cadherin/Fc Chimera, CF (R&D Systems Cat#861-PC) (human, UniProt P22223 108-654)", "T10 construct": "Bought reagent; Fc part of the bought chimera not given", "assay": "ECL Multispot (MSD) assay, antigen spotted on plate, 10 nM Fab; blank spot of this row 290"}, "[27]": {"target": "T11, rHuman ErbB2/Fc Chimera, CF (R&D Systems Cat#1129-ER) (human, UniProt P04626 23-652)", "T11 construct": "Bought reagent; also called human epidermal growth factor 2 receptor; Fc part of the bought chimera not given", "assay": "ECL Multispot (MSD) assay, antigen spotted on plate, 10 nM Fab; blank spot of this row 290"}, "[28]": {"target": "T12, rHuman EGF R/Fc Chimera, CF (R&D Systems Cat#344-ER) (human, UniProt P00533 25-645)", "T12 construct": "Bought reagent; also called epidermal growth factor receptor; Fc part of the bought chimera not given", "assay": "ECL Multispot (MSD) assay, antigen spotted on plate, 10 nM Fab; blank spot of this row 290"}, "[29]": {"target": "T13, rHuman HGF R/c-MET/Fc Chimera, CF (R&D Systems Cat#358-MT/CF) (human, UniProt P08581 25-932)", "T13 construct": "Bought reagent; also called HGF R/Fc; hepatocyte growth factor receptor; Fc part of the bought chimera not given", "assay": "ECL Multispot (MSD) assay, antigen spotted on plate, 10 nM Fab; blank spot of this row 290"}},
  "data": [
    {"binder": "B1", "values": [
      {"measurement": "ECL signal", "setting": "[1]", "result": 230},
      {"measurement": "ECL signal", "setting": "[2]", "result": 280},
      {"measurement": "ECL signal", "setting": "[3]", "result": 228},
      {"measurement": "ECL signal", "setting": "[4]", "result": 200},
      {"measurement": "ECL signal", "setting": "[5]", "result": 255},
      {"measurement": "ECL signal", "setting": "[6]", "result": 258},
      {"measurement": "ECL signal", "setting": "[7]", "result": 336},
      {"measurement": "ECL signal", "setting": "[8]", "result": 214},
      {"measurement": "ECL signal", "setting": "[9]", "result": 270},
      {"measurement": "ECL signal", "setting": "[10]", "result": 301},
      {"measurement": "ECL signal", "setting": "[11]", "result": 421},
      {"measurement": "ECL signal", "setting": "[12]", "result": 413},
      {"measurement": "ECL signal", "setting": "[13]", "result": 324},
      {"measurement": "ECL signal", "setting": "[14]", "result": 269},
      {"measurement": "ECL signal", "setting": "[15]", "result": 390},
      {"measurement": "ECL signal", "setting": "[16]", "result": 385},
      {"measurement": "ECL signal", "setting": "[17]", "result": 318},
      {"measurement": "ECL signal", "setting": "[18]", "result": 338},
      {"measurement": "ECL signal", "setting": "[19]", "result": 252},
      {"measurement": "ECL signal", "setting": "[20]", "result": 513},
      {"measurement": "ECL signal", "setting": "[21]", "result": 460},
      {"measurement": "ECL signal", "setting": "[22]", "result": 339},
      {"measurement": "ECL signal", "setting": "[23]", "result": 433},
      {"measurement": "ECL signal", "setting": "[24]", "result": 298}
    ]},
    {"binder": "B2", "values": [
      {"measurement": "ECL signal", "setting": "[25]", "result": 345},
      {"measurement": "ECL signal", "setting": "[26]", "result": 461},
      {"measurement": "ECL signal", "setting": "[27]", "result": 370},
      {"measurement": "ECL signal", "setting": "[28]", "result": 409},
      {"measurement": "ECL signal", "setting": "[29]", "result": 493}
    ]}
  ]
}
